In IntAct's records for PubMed 21398607:

Target: wasp_mouse Was (UniProt P70315)
Sequence (P70315 whole entry): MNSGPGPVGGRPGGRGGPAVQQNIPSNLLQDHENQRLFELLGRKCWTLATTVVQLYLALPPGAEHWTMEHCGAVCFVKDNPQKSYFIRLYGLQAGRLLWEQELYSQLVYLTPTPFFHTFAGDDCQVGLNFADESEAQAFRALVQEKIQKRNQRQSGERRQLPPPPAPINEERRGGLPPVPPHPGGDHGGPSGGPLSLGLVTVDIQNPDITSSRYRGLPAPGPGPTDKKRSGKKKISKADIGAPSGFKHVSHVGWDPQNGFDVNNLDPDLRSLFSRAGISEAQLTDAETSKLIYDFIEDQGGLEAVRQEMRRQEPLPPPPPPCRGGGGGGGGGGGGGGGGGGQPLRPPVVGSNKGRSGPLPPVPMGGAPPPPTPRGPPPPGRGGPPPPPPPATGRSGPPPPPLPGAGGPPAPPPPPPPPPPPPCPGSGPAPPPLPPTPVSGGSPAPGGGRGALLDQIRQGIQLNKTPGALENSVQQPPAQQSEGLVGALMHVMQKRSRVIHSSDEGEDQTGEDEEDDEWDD

WAS/WASL-interacting protein family member 1 (Homo sapiens), O43516 S436A, sequence (O43516 whole entry S436A): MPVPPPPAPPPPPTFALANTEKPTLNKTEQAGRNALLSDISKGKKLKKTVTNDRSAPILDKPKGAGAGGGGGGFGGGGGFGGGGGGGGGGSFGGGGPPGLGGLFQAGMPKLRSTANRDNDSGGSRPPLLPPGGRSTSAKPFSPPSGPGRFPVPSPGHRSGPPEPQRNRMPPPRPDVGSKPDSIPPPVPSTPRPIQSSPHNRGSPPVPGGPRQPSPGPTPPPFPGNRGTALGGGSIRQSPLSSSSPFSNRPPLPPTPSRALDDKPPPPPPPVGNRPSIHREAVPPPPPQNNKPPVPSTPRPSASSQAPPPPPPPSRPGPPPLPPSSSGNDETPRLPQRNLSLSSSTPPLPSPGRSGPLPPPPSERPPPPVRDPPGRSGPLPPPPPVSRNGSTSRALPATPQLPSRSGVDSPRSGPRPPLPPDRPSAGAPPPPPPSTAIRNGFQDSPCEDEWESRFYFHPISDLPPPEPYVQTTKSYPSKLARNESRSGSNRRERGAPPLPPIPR

WAS/WASL-interacting protein family member 1 (Homo sapiens), O43516 S436A
effect of a mutation on the interaction: disrupting interaction
